These results are taken from the supplement of paper PMC10567573.

The chains are these.
B1: CLPTM1 (parent)
chain: LGCYAVYSLLYLEHKGWYSWVLSM
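Also: lentivirally expressed fusions sorted by FACS into six bins by GFP to DsRed ratio, PSI derived from sequencing read proportions per bin multiplied by bin number.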

In the data set the parent is B1. The experiment in a line: protein stability index of a GFP-peptide fusion (GPS, HEK-293T) (PSI 1-6); higher = more stable. The conditions noted are these: c terminus: a fixed tail appended.
As to LGCYAVYSQLYLEHKGWYSWVLSM [L9Q], the protein stability index was determined as 2.67. The figure for LGCYAVYSILYLEHKGWYSWVLSM [L9I] is 2.15.

Consider LGCYAVYSDLYLEHKGWYSWVLSM [L9D], for which the protein stability index was determined as 3.48. The value for LGCYAVYSWLYLEHKGWYSWVLSM [L9W] was 2.7; that for LGCYAVYSNLYLEHKGWYSWVLSM [L9N] was 3.39.

Take LGCYAVYSRLYLEHKGWYSWVLSM [L9R]: the protein stability index came to 2.18. For LGCYAVYSFLYLEHKGWYSWVLSM [L9F], the protein stability index was found to be 4.07. The figure for LGCYAVYSGLYLEHKGWYSWVLSM [L9G] is 1.77; for LGCYAVYSTLYLEHKGWYSWVLSM [L9T] it is 1.75. LGCYAVYSKLYLEHKGWYSWVLSM [L9K]: the protein stability index was 2.65.

For the variant LGCYAVYSPLYLEHKGWYSWVLSM [L9P], the protein stability index was 4.54. The value for LGCYAVYSYLYLEHKGWYSWVLSM [L9Y] was 2.36; that for LGCYAVYSELYLEHKGWYSWVLSM [L9E] was 2.13. The figure for LGCYAVYSVLYLEHKGWYSWVLSM [L9V] is 1.94; for LGCYAVYSCLYLEHKGWYSWVLSM [L9C] it is 2.03. The figure for LGCYAVYSSLYLEHKGWYSWVLSM [L9S] is 2.77. LGCYAVYSMLYLEHKGWYSWVLSM [L9M]: the protein stability index came out at 2.92.

As to LGCYAVYSHLYLEHKGWYSWVLSM [L9H], the protein stability index stood at 1.71.

Take LGCYAVYSLLYLHHKGWYSWVLSM [E13H]: the protein stability index was 3.66. The value for LGCYAVYSLLYLGHKGWYSWVLSM [E13G] was 1.95; that for LGCYAVYSLLYLYHKGWYSWVLSM [E13Y] was 2.12; that for LGCYAVYSLLYLFHKGWYSWVLSM [E13F] was 3.1. The figure for LGCYAVYSLLYLTHKGWYSWVLSM [E13T] is 3.83; for LGCYAVYSLLYLIHKGWYSWVLSM [E13I] it is 4.56. The figure for LGCYAVYSLLYLMHKGWYSWVLSM [E13M] is 2.58; for LGCYAVYSLLYLPHKGWYSWVLSM [E13P] it is 3.78.

Take LGCYAVYSLLYLLHKGWYSWVLSM [E13L]: the protein stability index turned out to be 3.4. The value for LGCYAVYSLLYLCHKGWYSWVLSM [E13C] was 2.64; that for LGCYAVYSLLYLAHKGWYSWVLSM [E13A] was 1.11; that for LGCYAVYSLLYLDHKGWYSWVLSM [E13D] was 2.51. The figure for LGCYAVYSLLYLEHKGWRSWVLSM [Y18R] is 3.76; for LGCYAVYSLLYLEHKGWCSWVLSM [Y18C] it is 1.27; for LGCYAVYSLLYLEHKGWMSWVLSM [Y18M] it is 2.61.

For LGCYAVYSLLYLEHKGWQSWVLSM [Y18Q], the protein stability index was 2.56. The figure for LGCYAVYSLLYLEHKGWWSWVLSM [Y18W] is 3.03; for LGCYAVYSLLYLEHKGWNSWVLSM [Y18N] it is 3.45. The value for LGCYAVYSLLYLEHKGWHSWVLSM [Y18H] was 2.44; that for LGCYAVYSLLYLEHKGWKSWVLSM [Y18K] was 2.08; that for LGCYAVYSLLYLEHKGWISWVLSM [Y18I] was 3.27. The figure for LGCYAVYSLLYLEHKGWGSWVLSM [Y18G] is 2.21. For the variant LGCYAVYSLLYLEHKGWDSWVLSM [Y18D], the protein stability index worked out at 3.53.

For the variant LGCYAVYSLLYLEHKGWPSWVLSM [Y18P], the protein stability index came to 3.5. The figure for LGCYAVYSLLYLEHKGWFSWVLSM [Y18F] is 2.61; for LGCYAVYSLLYLEHKGWLSWVLSM [Y18L] it is 2.48; for LGCYAVYSLLYLEHKGWVSWVLSM [Y18V] it is 2.95. Turning to LGCYAVYSLLYLEHKGWYWWVLSM [S19W], the protein stability index is 2.66. The figure for LGCYAVYSLLYLEHKGWYQWVLSM [S19Q] is 3.63. Turning to LGCYAVYSLLYLEHKGWYRWVLSM [S19R], the protein stability index turned out to be 1.76. The figure for LGCYAVYSLLYLEHKGWYGWVLSM [S19G] is 2.71.

As to LGCYAVYSLLYLEHKGWYIWVLSM [S19I], the protein stability index is 3.66. The value for LGCYAVYSLLYLEHKGWYPWVLSM [S19P] was 2.93.

Take LGCYAVYSLLYLEHKGWYFWVLSM [S19F]: the protein stability index was 2.47. The value for LGCYAVYSLLYLEHKGWYAWVLSM [S19A] was 4.22; that for LGCYAVYSLLYLEHKGWYEWVLSM [S19E] was 2.27. The figure for LGCYAVYSLLYLEHKGWYTWVLSM [S19T] is 3.99; for LGCYAVYSLLYLEHKGWYVWVLSM [S19V] it is 1.92; for LGCYAVYSLLYLEHKGWYKWVLSM [S19K] it is 3.27.

With LGCYAVYSLLYLEHKGWYNWVLSM [S19N], the protein stability index was found to be 3.88.

With LGCYAVYSLLYLEHKGWYCWVLSM [S19C], the protein stability index was found to be 3.08. As to LGCYAVYSLLYLEHGGWYSWVLSM [K15G], the protein stability index is 1.81.

As to LGCYAVYSLLYLEHLGWYSWVLSM [K15L], the protein stability index stood at 3.23. The figure for LGCYAVYSLLYLEHFGWYSWVLSM [K15F] is 2.41. The value for LGCYAVYSLLYLEHTGWYSWVLSM [K15T] was 4.26; that for LGCYAVYSLLYLEHHGWYSWVLSM [K15H] was 3.75; that for LGCYAVYSLLYLEHVGWYSWVLSM [K15V] was 2.65.

Consider LGCYAVYSLLYLEHMGWYSWVLSM [K15M], for which the protein stability index came to 3.9. The figure for LGCYAVYSLLYLEHYGWYSWVLSM [K15Y] is 2.57; for LGCYAVYSLLYLEHNGWYSWVLSM [K15N] it is 3.11; for LGCYAVYSLLYLEHWGWYSWVLSM [K15W] it is 2.46. The figure for LGCYAVYSLLYLEHQGWYSWVLSM [K15Q] is 1.25; for LGCYAVYSLLYLEHSGWYSWVLSM [K15S] it is 2.73. The figure for LGCYAVYSLLYLEHAGWYSWVLSM [K15A] is 1.32. As for LGCYAVYSLLYLEHIGWYSWVLSM [K15I], the protein stability index is 2.89. The figure for LGCYAVYSLLYLEHPGWYSWVLSM [K15P] is 3.92; for LGCYAVYSLLYLEHCGWYSWVLSM [K15C] it is 2.9; for LGCYAVYSLLYKEHKGWYSWVLSM [L12K] it is 3.11. Consider LGCYAVYSLLYIEHKGWYSWVLSM [L12I], for which the protein stability index is 3.36.

For LGCYAVYSLLYHEHKGWYSWVLSM [L12H], the protein stability index stood at 2.99. The figure for LGCYAVYSLLYQEHKGWYSWVLSM [L12Q] is 3.59; for LGCYAVYSLLYTEHKGWYSWVLSM [L12T] it is 2.14; for LGCYAVYSLLYEEHKGWYSWVLSM [L12E] it is 3.57. Consider LGCYAVYSLLYNEHKGWYSWVLSM [L12N], for which the protein stability index came out at 4.59. The value for LGCYAVYSLLYSEHKGWYSWVLSM [L12S] was 2.02. The value for LGCYAVYSLLYCEHKGWYSWVLSM [L12C] was 2.68; that for LGCYAVYSLLYVEHKGWYSWVLSM [L12V] was 2.89; that for LGCYAVYSLLYGEHKGWYSWVLSM [L12G] was 3.12. The value for LGCYAVYSLLYDEHKGWYSWVLSM [L12D] was 2.74.

LGCYAVYSLLYMEHKGWYSWVLSM [L12M]: the protein stability index was 4.09.

For LGCYAVYSLLYPEHKGWYSWVLSM [L12P], the protein stability index was found to be 3.25. The figure for LGCYAVYSLLYYEHKGWYSWVLSM [L12Y] is 2.43; for LGCYAVYSLLYFEHKGWYSWVLSM [L12F] it is 3.31. The value for LGCYAVYSLLYWEHKGWYSWVLSM [L12W] was 2.4; that for LGCYAVYSLLYREHKGWYSWVLSM [L12R] was 4.16. The figure for LGCYAVYSLLSLEHKGWYSWVLSM [Y11S] is 1.87.
